Legend:
[1] = target: T1, E. coli DNA polymerase III α with improved clamp binding motif (PolIIIα^QLDLF) (E. coli, UniProt P10443 1-1160, 920-924 QADMF to QLDLF); assay: cryo-EM structure; four-protein complex assembled at 15 μM, gel filtration in 25 mM Hepes pH 7.5, 50 mM potassium glutamate, 3 mM magnesium acetate, 2 mM DTT; peak fraction (~4 μM) with 20 μM 25 bp DNA substrate; DNA-free (8.3 Å), DNA-bound (8.0 Å) and DNA-bound without tail (7.3 Å) classes from a single data set; crystal and NMR structures fitted as rigid bodies; conditions: both partners purified
T1 construct: DNA polymerase III subunit α (PolIIIα), E. coli; It says that His-tags were removed with 3C protease but not which of the proteins carried one; PDB 2HNH lacks the C-terminal tail; source: E. coli (DE3) BL21, purified (as described in Toste Rêgo et al., 2013)

[2] = target: T2, E. coli DNA sliding clamp β (E. coli, UniProt P0A988 1-366); assay: as above; conditions: both partners purified
T2 construct: DNA polymerase III β subunit (DNA sliding clamp), E. coli; dimeric; It says that His-tags were removed with 3C protease but not which of the proteins carried one; also called β subunit; source: E. coli (DE3) BL21, purified (as described in Toste Rêgo et al., 2013)

[3] = target: PolIIIα (clamp-binding motif QADMF to QLDLF);DNA sliding clamp β;exonuclease ε (clamp-binding motif QTSMAF to … (Escherichia coli;Escherichia …, UniProt P10443;P0A988;P03007;P06710 1-1160;1-366;1-243;500-643, A921L;M923L||T183L;M185L;A186P;F187L|)); assay: cryo-EM; 3 mM Mg acetate; 8.0 Å DNA-bound map (7.3 Å for class without visible tail/τ500); EMSA: 20 mM Tris pH 7.5, 4% glycerol, 5 mM DTT, 40 μg/ml BSA, 40 mM K glutamate, 10 min room temperature, native 6% gel; cryo-EM: 25 mM Hepes pH 7.5, 50 mM K glutamate, 3 mM Mg acetate, 2 mM DTT, ~4 μM complex + 20 μM DNA, room temperature, then Tween 20; conditions: protein: recombinant;recombinant;recombinant;recombinant; tags: ;;;His-tag removed (HRV 3C); copies: 1;2;1;1; 25 bp duplex, 5' overhang 4 nt on template strand
Pol IV = target: T3, Pol IV (Escherichia coli, UniProt Q47155 1-351); assay: EMSA; 2.5 μM protein, 5 nM DNA; EMSA: 20 mM Tris pH 7.5, 4% glycerol, 5 mM DTT, 40 μg/ml BSA, 40 mM K glutamate, 10 min room temperature, native 6% gel; cryo-EM: 25 mM Hepes pH 7.5, 50 mM K glutamate, 3 mM Mg acetate, 2 mM DTT, ~4 μM complex + 20 μM DNA, room temperature, then Tween 20; conditions: protein: recombinant; label: 6-FAM at 5' end of primer strand; 25 bp duplex, 5' overhang 4 nt on template strand
T3 sequence: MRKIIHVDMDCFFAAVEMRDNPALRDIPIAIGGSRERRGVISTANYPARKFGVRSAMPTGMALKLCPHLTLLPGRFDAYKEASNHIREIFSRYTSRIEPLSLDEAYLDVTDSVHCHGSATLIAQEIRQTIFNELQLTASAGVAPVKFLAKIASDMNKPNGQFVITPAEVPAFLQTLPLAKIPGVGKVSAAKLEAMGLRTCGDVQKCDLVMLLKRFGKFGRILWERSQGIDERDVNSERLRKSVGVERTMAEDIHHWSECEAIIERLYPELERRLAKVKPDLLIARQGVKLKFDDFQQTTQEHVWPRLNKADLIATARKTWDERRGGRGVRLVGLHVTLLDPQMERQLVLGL

Pol I (Klenow fragment) = Pol I (Klenow fragment) (Escherichia coli, UniProt P00582 324-928); assay: as above; conditions: protein: recombinant; label: 6-FAM at 5' end of primer strand; 25 bp duplex, 5' overhang 4 nt on template strand

B1: E. coli proofreading exonuclease ε with improved clamp binding motif (exonuclease^QLSLPL) (enzyme, UniProt P03007 1-243, looked up)
chain: MSTAITRQIVLDTETTGMNQIGAHYEGHKIIEIGAVEVVNRRLTGNNFHVYLKPDRLVDPEAFGVHGIADEFLLDKPTFAEVADEFMDYIRGAELVIHNAAFDIGFMDYEFSLLKRDIPKTNTFCKVTDSLAVARKMFPGKRNSLDALCARYEIDNSKRTLHGALLDAQILAEVYLAMTGGQLSLPLAMEGETQQQQGEATIQRIVRQASKLRVVFATDEEIAAHEARLDLVQKKGGSCLWRA
notes: DNA polymerase III subunit ε (proofreading exonuclease), E. coli; residues 190-207 are a missing loop; source: E. coli (DE3) BL21, purified (as described in Toste Rêgo et al., 2013)
binding result [1]: binds | binding result [2]: binds

B2: τ500 (the polymerase-binding domain of τ: residues 500–643) (domain or fragment, E. coli, UniProt P06710 500-643, looked up)
chain: ALEHEKTPELAAKLAAEAIERDPWAAQVSQLSLPKLVEQVALNAWKEESDNAVCLHLRSSQRHLNNRGAQQKLAEALSMLKGSTVELTIVEDDNPAVRTPLEWRQAIYEEKLAQARESIIADNNIQTLRRFFDAELDEESIRPI
notes: PDB 2AYA (NMR) holds residues 500-621 only; His-tags were removed with human rhinovirus 3C protease; also called τc; C-terminal domain of the clamp loader subunit τ; source: E. coli (DE3) BL21, purified (Histrap HP, Resource S, Superdex 75)
binding result [1]: binds

B3: 25 bp primer-template with 4 nt overhang (cryo-EM) (dsDNA)
DNA 1: TCAGGAGTCCTTCGTCCTAGTACTACTCC
DNA 2: GGAGTAGTACTAGGACGAAGGACTC
binding result [3]: binds

B4: 25 bp primer-template with 4 nt overhang (EMSA) (dsDNA)
DNA 1: TCAGGAGTCCTTCGTCCTAGTACTACTCC
DNA 2: GGAGTAGTACTAGGACGAAGGACTC
modifications: phosphorothioate at 3' terminal bond (primer; strand implied)
binding result (Pol IV): binds | binding result (Pol I (Klenow fragment)): binds

From PMC4703070, “cryo-EM structures of the E. coli replicative DNA polymerase reveal its dynamic interactions with the DNA sliding clamp, exonuclease and τ” (eLife, 2015)
